Changes are numbered by the printed parent chain. Names and notes keep the numbering of the source.
T1: human 5T4ECDHis (mature protein of SEQ ID NO: 99) (human, UniProt Q13641 32-355)
T1 construct: ECD of human 5T4 (aa 1-355 of Uniprot Q13641) with C-terminal His tag; residues 1-31 are the signal peptide; also called ECD of human 5T4 with a C-terminal His tag
T1 sequence: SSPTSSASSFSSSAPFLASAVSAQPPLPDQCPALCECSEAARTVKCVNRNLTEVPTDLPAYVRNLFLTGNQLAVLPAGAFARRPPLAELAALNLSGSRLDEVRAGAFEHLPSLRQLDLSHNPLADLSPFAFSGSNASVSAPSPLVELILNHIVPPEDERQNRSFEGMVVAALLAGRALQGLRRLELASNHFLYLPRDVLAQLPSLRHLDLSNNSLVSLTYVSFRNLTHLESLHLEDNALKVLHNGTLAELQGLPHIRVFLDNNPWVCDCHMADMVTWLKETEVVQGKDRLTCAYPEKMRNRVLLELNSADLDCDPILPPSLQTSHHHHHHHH

T2: recombinant cynomolgus monkey 5T4 protein (Cusabio; cat. no. CSB-MP024093MOV) (cynomolgus monkey, UniProt Q4R8Y9 35-355)
T2 construct: extracellular domain; Bought protein; also called cynomolgus 5T4; cynomolgus monkey 5T4 extracellular domain
T2 sequence (looked up): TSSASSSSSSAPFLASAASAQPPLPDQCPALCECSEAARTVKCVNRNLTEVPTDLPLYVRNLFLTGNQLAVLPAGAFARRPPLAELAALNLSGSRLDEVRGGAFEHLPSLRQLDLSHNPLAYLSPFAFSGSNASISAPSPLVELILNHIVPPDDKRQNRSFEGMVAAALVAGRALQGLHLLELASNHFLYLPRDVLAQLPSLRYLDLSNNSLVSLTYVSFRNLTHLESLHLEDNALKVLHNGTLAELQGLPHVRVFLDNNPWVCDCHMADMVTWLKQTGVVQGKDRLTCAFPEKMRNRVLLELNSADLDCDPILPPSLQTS

T3: full length chicken 5T4 (SEQ ID NO: 3) on transfected HEK-293 cells (chicken)
T3 construct: Uniprot R4GM46; residues 1-27 are the signal peptide
T3 chain: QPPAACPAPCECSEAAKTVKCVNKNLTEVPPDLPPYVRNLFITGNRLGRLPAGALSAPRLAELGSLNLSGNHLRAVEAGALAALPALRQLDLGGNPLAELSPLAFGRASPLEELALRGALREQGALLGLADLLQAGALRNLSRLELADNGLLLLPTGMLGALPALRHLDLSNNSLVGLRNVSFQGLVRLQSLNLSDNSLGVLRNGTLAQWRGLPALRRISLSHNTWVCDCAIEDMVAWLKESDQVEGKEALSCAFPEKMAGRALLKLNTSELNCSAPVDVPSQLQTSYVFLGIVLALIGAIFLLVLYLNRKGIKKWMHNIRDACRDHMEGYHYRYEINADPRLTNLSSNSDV

T4: full length cynomolgus monkey 5T4 on transfected HEK-293 cells (cynomolgus monkey, UniProt Q4R8Y9 35-420)
T4 construct: Uniprot Q4R8Y9; residues 1-34 are the signal peptide; also called cynomolgus 5T4
T4 sequence: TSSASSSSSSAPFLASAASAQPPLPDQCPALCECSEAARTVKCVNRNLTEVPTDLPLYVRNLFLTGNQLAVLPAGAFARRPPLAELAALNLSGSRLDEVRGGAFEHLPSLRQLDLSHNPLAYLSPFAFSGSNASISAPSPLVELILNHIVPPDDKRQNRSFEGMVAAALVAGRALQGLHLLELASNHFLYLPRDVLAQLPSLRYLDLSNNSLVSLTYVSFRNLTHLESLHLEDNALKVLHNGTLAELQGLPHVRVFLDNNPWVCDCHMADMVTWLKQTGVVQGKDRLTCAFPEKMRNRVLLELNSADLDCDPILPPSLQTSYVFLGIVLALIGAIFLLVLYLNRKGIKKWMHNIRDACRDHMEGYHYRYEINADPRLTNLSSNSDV

B1: IgG1-5T4-207-FEAR (antibody, V domains shown)
VH: QVQLQQWGAGLLKPSETLSLTCAVYGGSFSGYYWTWIRQPPGKGLEWIGEIDHSESTNYNPSLKSRVTISVDTSKNQFSLKLSSVTAADTAVYYCAGWFGELYHYYYGMDVWGQGTTVTVSS
VL: EIVLTQSPATLSLSPGERATLSCRASQSVSSYLAWYQQKPGQAPRLLIYDASNRATGIPARFSGSGSGTDFTLTISSLEPEDFAVYYCQQRSNWPLTFGGGTKVEIKR
notes: Monospecific, bivalent IgG1 FEAR
B2: IgG1-5T4-226-FEAR (antibody, V domains shown)
VH: B1 VH with T35S, E55G, G97A, Y103W, H104D
VL: EIVLTQSPATLSLSPGERATLSCRASQSVSSFLAWYQQKPGQAPRLLIYDASNRATGIPARFSGSGSGTDFTLTISSLEPEDFAVYYCQQRSNWPLTFGQGTRLEIK
notes: Monospecific, bivalent human IgG1 kappa with L234F, L235E, D265A, K409R (FEAR); also called IgG1-5T4-226-FEAR-FITC

Experiments:
[1] = target: T1, human 5T4ECDHis (mature protein of SEQ …); test: BLI cross-block; competitor (immobilised): IgG1-5T4-H8-FEAR
Protocol: (§1) Antibody cross-block analysis (epitope binning) was performed using biolayer interferometry on an Octet HTX instrument (ForteBio). 5T4 antibodies (20 µg/mL in 10 mM sodium acetate buffer pH 6.0, ForteBio) were immobilized on Amine-Reactive 2nd Generation (AR2G) biosensors (ForteBio) according to the manufacturer’s instructions. […] Next, the association response of a second 5T4 antibody (10 µg/mL) was determined for 500 s. Biosensors were regenerated by 3 times 5 s exposure to 10 mM glycine pH 2.5 followed by Sample Diluent, and the measurement was repeated with a new set of second 5T4 antibodies starting from the baseline step. Each biosensor was used four times. Measurements were performed at 30° C. using a shaker speed of 1000 rpm. Data were analyzed using Data Analysis Software v9.0.0.12 (ForteBio). The Y-axis was aligned to the association step and Savitzky-Golay filtering was applied. The response of Sample Diluent during the association step was subtracted from the association response of the second antibody in order to correct for the dissociation of 5T4ECDHis from the immobilized antibody. […] In general, responses > 0.1 nm were considered non-blocking antibody pairs (white), while responses between -0.1 and 0.1 nm were considered to be blocking antibody pairs (dark grey). […] In some cases, the data curves needed visual inspection by an expert to assign blocking, non-blocking or displacement properties to antibody pairs.

[2] = target: T1, human 5T4ECDHis (mature protein of SEQ …); test: BLI cross-block; competitor (immobilised): IgG1-5T4-059-FEAR
Protocol: as §1

[3] = target: T1, human 5T4ECDHis (mature protein of SEQ …); test: BLI cross-block; competitor (immobilised): IgG1-5T4-076-FEAR
[4] = target: T1, human 5T4ECDHis (mature protein of SEQ …); test: BLI cross-block; competitor (immobilised): IgG1-5T4-085-FEAR
Protocol: as §1

[5] = target: T1, human 5T4ECDHis (mature protein of SEQ …); test: BLI cross-block; competitor (immobilised): IgG1-5T4-106-FEAR
Protocol: as §1

[6] = target: T1, human 5T4ECDHis (mature protein of SEQ …); test: BLI cross-block; competitor (immobilised): IgG1-5T4-127-FEAR
[7] = target: T1, human 5T4ECDHis (mature protein of SEQ …); test: BLI cross-block; competitor (immobilised): IgG1-5T4-207-FEAR
Protocol: as §1

[8] = target: T1, human 5T4ECDHis (mature protein of SEQ …); test: BLI cross-block; competitor (immobilised): IgG1-5T4-226-FEAR
Protocol: as §1

[9] = target: T1, human 5T4ECDHis (mature protein of SEQ …); test: BLI cross-block; competitor (immobilised): IgG1-5T4-A1-F405L
[10] = target: T1, human 5T4ECDHis (mature protein of SEQ …); test: BLI, antibody on anti-human IgG Fc Capture biosensor, antigen in solution
Protocol: (§2) Affinities of the 5T4 antibodies for recombinant 5T4 protein were determined using label-free biolayer interferometry on an Octet HTX instrument (ForteBio, Portsmouth, UK). 5T4 antibodies (1 µg/mL) were immobilized for 600 seconds on anti-human IgG Fc Capture biosensors (ForteBio). […] Data were analyzed with Data Analysis Software v9.0.0.12 (ForteBio). Values of reference wells containing only Sample Diluent during the association and dissociation steps were subtracted from values of wells containing antigen, for each antibody separately. The Y-axis was aligned to the last 10 s of the baseline and Interstep Correction alignment to dissociation as well as Savitzky-Golay filtering was applied. Responses < 0.05 nm were excluded from analysis. The data were fitted using the 1:1 model and a global full fit with 200 s association time and 1000 s or 50 s dissociation time as Window of Interest. The fit with the full dissociation time (1000 s) as Window of Interest was used by default.

[11] = target: T2, recombinant cynomolgus monkey 5T4 …; test: as above
Protocol: as §2

[12] = target: T3, full length chicken 5T4 (SEQ ID NO: 3) …; test: flow cytometry, HEK-293 cells transfected with chicken 5T4, PE secondary
Protocol: After incubation with R-Phycoerythrin (PE)-conjugated goat-anti-human IgG F(ab′)2, the mean fluorescence intensity (MFI) was determined by flow cytometry.
Cells were washed twice in staining buffer, re-suspended in 20 µL staining buffer and analyzed on an iQue screener (Intellicyt Corporation, USA). Binding curves were analyzed by non-linear regression (sigmoidal dose-response with variable slope) using GraphPad Prism V7.02 software (GraphPad Software, San Diego, CA, USA).

[13] = target: T4, full length cynomolgus monkey 5T4 on …; test: flow cytometry, HEK-293 cells transfected with cynomolgus monkey 5T4, FITC secondary [I)B]
Protocol: Experiments were performed in technical duplicate. After washing twice in staining buffer, cells were incubated in 50 µL secondary antibody at 4° C. for 30 min. […] Cells were washed twice in staining buffer, re-suspended in 30 µL staining buffer and analyzed on an iQue Screener (Intellicyt Corporation, USA). Binding curves were analyzed using non-linear regression (sigmoidal dose-response with variable slope) using GraphPad Prism V7.02 software (GraphPad Software, San Diego, CA, USA).

Row | Binder | corrected association response [1] | corrected association response [2] | corrected association response [3] | corrected association response [4] | corrected association response [5] | corrected association response [6] | corrected association response [7] | corrected association response [8] | corrected association response [9] | Kd [10] | koff [10] | kon [10] | Kd [11] | koff [11] | kon [11] | binding result [12] | EC50 (read off the curve) [13]
1 | B1 | -0.01 nm | 0.02 nm | 0.05 nm | 0.08 nm | -0.03 nm | 0.16 nm | -0.02 nm | -0.02 nm | 0.86 nm | 2.6 nM | 0.00068 s⁻¹ | 270000 M⁻¹ s⁻¹ | 6.3 nM | 0.00087 s⁻¹ | 140000 M⁻¹ s⁻¹ | binds | –
2 | B2 | -0.01 nm | 0.01 nm | 0.05 nm | 0.07 nm | -0.02 nm | 0.16 nm | -0.02 nm | -0.02 nm | 0.86 nm | 2.5 nM | 0.00081 s⁻¹ | 330000 M⁻¹ s⁻¹ | 11 nM | 0.0015 s⁻¹ | 140000 M⁻¹ s⁻¹ | binds | ~0.08 µg/mL
